Data on five molecules can be found in publication PMC10709064, “The leucine zipper domain of the transcriptional repressor Opi1 underlies a signal transduction mechanism regulating lipid synthesis” (The Journal of Biological Chemistry, 2023).

T1: MBP-N-Opi1^3L (L146A, L153S, L160A) (S. cerevisiae, UniProt P21957 1-190, L146A | L153S | L160A)
T1 construct: Opi1, S. cerevisiae, N terminus from aa1 to aa190 (N-Opi1) with the 3L mutations L146A L153S L160A; pMAL-c expression vector; not shown: MBP, N-terminal, kept
T1 sequence (looked up): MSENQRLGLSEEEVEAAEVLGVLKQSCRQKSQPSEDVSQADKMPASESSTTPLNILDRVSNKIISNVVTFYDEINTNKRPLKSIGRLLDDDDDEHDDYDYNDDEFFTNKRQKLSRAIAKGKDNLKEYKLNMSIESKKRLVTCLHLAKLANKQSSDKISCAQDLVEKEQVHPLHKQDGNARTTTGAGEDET

T2: MBP-N-Opi1^N150D (S. cerevisiae, UniProt P21957 1-190, N150D)
T2 construct: Opi1, S. cerevisiae, N terminus from aa1 to aa190 (N-Opi1) with N150D; pMAL-c expression vector; amplified from mutant OPI1 DNA template; source: for SEC further run on Superdex 200 Increase; not shown: MBP, N-terminal, kept
T2 sequence (looked up): T1 sequence (looked up) with A146L, N150D, S153L, A160L

T3: GST-N-Opi1^N150D (S. cerevisiae, UniProt P21957 1-190, N150D)
T3 construct: Opi1, S. cerevisiae, N terminus from aa1 to aa190 (N-Opi1) with N150D; pGEX-4T-1 expression vector; not shown: GST, N-terminal, kept
T3 sequence (looked up): T1 sequence (looked up) with A146L, N150D, S153L, A160L

T4: GST-N-Opi1^3L (L146A, L153S, L160A) (S. cerevisiae, UniProt P21957 1-190, L146A | L153S | L160A)
T4 construct: Opi1, S. cerevisiae, N terminus from aa1 to aa190 (N-Opi1) with the 3L mutations L146A L153S L160A; pGEX-4T-1 expression vector; not shown: GST, N-terminal, kept
T4 sequence (looked up): T1 sequence (looked up)

T5: GST-N-Opi1^WT (glutathione-S-transferase fused to Opi1 aa1-190) (S. cerevisiae, UniProt P21957 1-190)
T5 construct: Opi1, S. cerevisiae, N terminus from aa1 to aa190 (N-Opi1), holds the leucine zipper (aa 139-166); pGEX-4T-1 expression vector; also called N-Opi1^1-190; not shown: GST, N-terminal, kept
T5 sequence (looked up): T1 sequence (looked up) with A146L, S153L, A160L

B1: MBP-N-Opi1^WT (maltose-binding protein fused to the N-terminal Opi1^1-190 polypeptide) (domain or fragment, S. cerevisiae, UniProt P21957 1-190, looked up)
chain: T1 sequence (looked up) with A146L, S153L, A160L
notes: Opi1, S. cerevisiae, N terminus from aa1 to aa190 (N-Opi1), holds the leucine zipper (aa 139-166); pMAL-c expression vector; also called N-Opi1^1-190; source: for SEC further run on Superdex 200 Increase; not shown: MBP, N-terminal, kept
B2: GST-C-Opi1^WT (glutathione-S-transferase fused to Opi1 aa291-404) (domain or fragment, S. cerevisiae, UniProt P21957 291-404, looked up)
chain: QQQQQQQQLLQQQLLQQQQQKRNKDGDDSASPSSSVTANGKVLILAKESLEMVRNVMGVVDSTLGKAEEWVKQKQEVKEMIRERFLQQQQQYRQQQQKDGNYVKPSQDNVDSKD
notes: Opi1, S. cerevisiae, C terminus from aa291 to aa404 (C-Opi1), holds the AID (aa 321-379); pGEX-4T-1 expression vector; also called C-Opi1^291-404; Opi1^291-404; not shown: GST, N-terminal, kept
B3: GST-C-Opi1^S339F (domain or fragment, S. cerevisiae, UniProt P21957 291-404, looked up)
chain: B2 chain with S49F
notes: Opi1, S. cerevisiae, C terminus from aa291 to aa404 (C-Opi1) with S339F; pGEX-4T-1 expression vector; loss of function mutation known from earlier genetic work; not shown: GST, N-terminal, kept
B4: GST-C-Opi1^V343E (domain or fragment, S. cerevisiae, UniProt P21957 291-404, looked up)
chain: B2 chain with V53E
notes: Opi1, S. cerevisiae, C terminus from aa291 to aa404 (C-Opi1) with V343E; pGEX-4T-1 expression vector; loss of function mutation known from earlier genetic work; not shown: GST, N-terminal, kept
B5: MBP-C-Opi1^WT (maltose-binding protein fused to Opi1 aa291-404) (domain or fragment, S. cerevisiae, UniProt P21957 291-404, looked up)
chain: B2 chain
notes: Opi1, S. cerevisiae, C terminus from aa291 to aa404 (C-Opi1), holds the AID (aa 321-379); pMAL-c expression vector; also called C-Opi1^291-404; Opi1^291-404; not shown: MBP, N-terminal, kept

Data set [1] deals with the molecule itself. As to the kind of experiment: SEC; 0.5 mg of affinity-purified MBP fusion on Superdex 200 Increase 10/300 GL, 20 mM Tris-HCl pH 7.4, 150 mM NaCl, 0.5 ml/min; molecular weights estimated from calibration markers.
The target of data set [2] is B1. As to the kind of experiment: pull-down; as the pull-down with alternate tags, but binding reactions carried out at decreasing reactant concentrations (relative volume of the binding reaction varied); prey detected by Western blot. Conditions: both partners purified. For orientation: In western blotting, separated proteins are transferred to a membrane and probed.
Data set [3] concerns the target T1, MBP-N-Opi1^3L (L146A, L153S, L160A). The data set is described as above. Conditions: both partners purified.
In another data set the target is T2, MBP-N-Opi1^N150D. The description is as above. Conditions: both partners purified.
The next data set concerns the target T3, GST-N-Opi1^N150D. The data set is described as above. Conditions: both partners purified.
Data set [4] concerns the target T4, GST-N-Opi1^3L (L146A, L153S, L160A). Described as above. Conditions: both partners purified.
In data set [5] the target is T5, GST-N-Opi1^WT …. The data set can be described thus: pull-down; around 0.5 ug bait on amylose resin or glutathione-Sepharose with 1.5 ug prey of the alternate tag in 100 ul binding buffer (20 mM Tris-HCl pH 8, 150 mM NaCl, 1 mM EDTA, 1 mM DTT, 20% glycerol, 0.05% Triton X-100) with 50 ug/ml BSA, 2 h at 4 C; bait eluted with its ligand, prey detected by Western blot against MBP or GST. Conditions: both partners purified.

Where a chain is given by its changes, count along the chain named. Names may count otherwise.

The stoichiometry N is a count of units in the complex or per binding partner.

On to B1, for which, in data set [1], the “stoichiometry N” value was around 2.

Consider B2, for which the binding result (in data set [2]; in data set [3]; with MBP-N-Opi1^N150D) was “binds” in each case.

Consider B3, for which, in data set [2], the binding result is “binds”.

For the molecule B4, the binding result in data set [2] is on record as “binds”.

For B5, the binding result (with GST-N-Opi1^N150D; in data set [4]; in data set [5]) was “binds” throughout.
